In test [1] the target is T1, TcdB-RBD-f1 (Clostridium difficile, UniProt P18177 2286-2366).
T1 construct: range 2286-2366
Briefly: ELISA, antigen coated.

Test [2] deals with T2, Clostridium difficile toxin B (TcdB) (Clostridium difficile strain 10463, UniProt P18177 1-2366).
T2 construct: range 1-2366
Nature of the test: ELISA, antigen coated. (An ELISA detects its analyte on a solid surface through an enzyme-linked reagent.)

The target in test [3] is T3, Clostridium difficile toxin A (TcdA) (Clostridium difficile strain 10463, UniProt P16154 1-2710).
T3 construct: range 1-2710
Nature of the test: SPR, TcdA immobilized; same value as in Table 1. In general terms: SPR reads the build-up and loss of mass on a sensor chip optically.

The target in test [4] is T3, Clostridium difficile toxin A (TcdA). Nature of the test: SPR (BIACORE 3000); TcdA immobilized on CM5 chip, monomeric VHH injected.
The target is the same in test [5]. Nature of the test: ELISA, immobilized TcdA, serial dilution of VHH, rabbit anti-His6 IgG-HRP.
The target is the same in test [6]. Briefly: ELISA, antigen coated.
Test [7] deals with T1, TcdB-RBD-f1. Briefly: SPR (BIACORE 3000); VHH immobilized on CM5 chip, TcdB-RBD-f1 injected.
Test [8] has as its target T3, Clostridium difficile toxin A (TcdA).
Test [9] has the same target. Briefly: SPR (BIACORE 3000); 10,287 RUs of TcdA immobilized, VHH injected.
In test [10] the target is T4, TcdA-RBD-f1 (Clostridium difficile, UniProt P16154 2304-2710).
T4 construct: range 2304-2710
Nature of the test: ELISA, antigen coated.

Test [11] deals with T3, Clostridium difficile toxin A (TcdA). Briefly: ELISA, TcdA coated at 5 ug/ml, rabbit anti-His6 IgG-HRP.
The target is the same in test [12]. The source holds these as a separate data set.

As a reminder, the Kd is the free concentration of one partner at which half of the binding sites on the other are occupied at equilibrium, for simple one-to-one binding. Higher therefore signals lower affinity. In general, koff refers to the first-order rate constant of dissociation. High values mean a short-lived complex, low ones a long-lived complex. In general, kon refers to the rate constant with which the complex forms. Usually EC50 (read off the curve) stands for the concentration needed to bring the measured effect to its halfway point. A higher EC50 (read off the curve) goes with a less potent agent.

Where two headings read alike, the source gives them in different places.

B1: A19.2 (VHH)
VHH: QVKLEESGGGLVQPGGSLRLSCAASGRTLSSYIVAWFRQAPGKEREFVAGISRRGGNSAYVESVKGRFTISRDNAKNTVYLQMNSLKPEDTAVYYCAADGSVAGWGRRSVSVSSYDYWGQGTQVTVSS
notes: also called anti-TcdA VHH A19.2
Turning to B1, in test [1], the binding result is on record as “no binding”. In test [2], the binding result is “no binding”. In addition, in test [3], the Kd came to 0.29 µM, the koff is 0.0039 s⁻¹ and the association rate constant (kon) stood at 14000 M⁻¹ s⁻¹. In test [4], the Kd came to 0.29 µM, the koff amounted to 0.0039 s⁻¹ and the kon came out at 14000 M⁻¹ s⁻¹. For the same molecule, the “EC50 (read off the curve)” value in test [5] is ~0.04 mg/L.

B2: B5.2 (VHH)
VHH: QVQLVESGGGLVQPGGSLRLSCAASGNIFSINTMGWYRQAPGKQLELVAAITSGGTTSYTDSVEGRFTISRDNAKNAVYLQMNSLKAEDTAVYYCNTVKVVGGRLDNPDYWGQGTQVTVSS
notes: llama VHH monomer; also called anti-TcdB VHH B5.2
B2: in [6], the binding result is reported as “binds”. Moreover, in test [7], the Kd stood at 0.1 µM, the koff was determined as 0.0002 s⁻¹ and the kon was determined as 2000 M⁻¹ s⁻¹.

B3: B13.6 (VHH)
VHH: QVKLEESGGGLVQAGGSLRLSCSASGRTFSSGVMGWFRQAPGKQRELVAAITTGGSTSYTDSVKGRFTISRDNAKNTVYLQMNSLKPEDTAVYYCNSVAVVGGVIKSPDYWGQGTQVTVSS
notes: llama VHH monomer; also called anti-TcdB VHH B13.6
In [7], B3 registered a Kd of 0.4 µM, a koff of 0.001 s⁻¹ and a kon of 2500 M⁻¹ s⁻¹.

B4: B15.5 (VHH)
VHH: QVQLVESGGDLVQAGGSLRLSCAASGSISRISTMGWYRQAPGKQRELVATISTGGTTNYAESVKGRFTVSRDNAKNTMYLQMNSLKPEDTAVYYCAAGWKVVRGSLEYEYSGQGTQVTVSS
notes: llama VHH monomer; also called anti-TcdB VHH B15.5
In test [7], B4 came in with a Kd of 0.357 µM, a koff of 0.001 s⁻¹ and a kon of 2800 M⁻¹ s⁻¹.

B5: A26.8m (VHH)
VHH: QVKLEESGGGLVQAGGSLRLSCAASERTFSRYPVAWFRQAPGAEREFVCVISSTGTSTYYADSVKGRFTCSRDNAKVTVYLQMNNLKREDTAVYFCAVNSQRTRLQDPNEYDYWGQGTQVTVSS
notes: also called mutant A26.8; disulfide mutant of A26.8
For the molecule B5, the koff in test [8] was found to be 0.019 s⁻¹. Further, in test [9], the Kd came to 0.028 µM, the koff came to 0.028 s⁻¹ and the kon was 1e+06 M⁻¹ s⁻¹.

B6: A26.8 (VHH)
VHH: QVKLEESGGGLVQAGGSLRLSCAASERTFSRYPVAWFRQAPGAEREFVAVISSTGTSTYYADSVKGRFTISRDNAKVTVYLQMNNLKREDTAVYFCAVNSQRTRLQDPNEYDYWGQGTQVTVSS
notes: also called anti-TcdA VHH A26.8
Consider B6, for which the binding result in [10] is recorded as “binds”; in test [1], “no binding”.

B7: A24.1 (VHH)
VHH: QVQLVESGGGLVQAGGSLRLSCAASIRSFSNRNMGWFRQPPGKEREFVAGISWGGGSTRYADSVKGRFTISRDNAKKTVYLQMNSLKPEDTAVYYCAAEFGHNIATSSDEYDYWGQGTQVTVSS
notes: also called anti-TcdA VHH A24.1
For the molecule B7, the binding result in test [1] is given as “no binding”. Further, the binding result in [2] is “no binding”. In addition, in [3], the Kd stood at 0.26 µM, the koff is 0.016 s⁻¹ and the kon came out at 60000 M⁻¹ s⁻¹. In addition, in [4], the affinity, expressed as Kd, was 0.26 µM; the koff is 0.016 s⁻¹; the kon turned out to be 60000 M⁻¹ s⁻¹.

B8: A4.2m (VHH)
VHH: QVKLEESGGGLVQAGGSLRLSCAASGRTFNTLSMGWFRQAPGKEREFVCAVSRSGGSTYYADSVKGRFTCSRDNAKNTVYLQMNSLKPEDTAVYYCAAAATKSNTTAYRLSFDYWGQGTQVTVSS
notes: also called mutant A4.2; disulfide mutant of A4.2
In turn, B8 came in with a koff in test [8] of 0.016 s⁻¹. In test [9], the Kd was found to be 0.02 µM, the koff turned out to be 0.019 s⁻¹ and the kon is 930000 M⁻¹ s⁻¹.

B9: A4.2 (VHH)
VHH: QVKLEESGGGLVQAGGSLRLSCAASGRTFNTLSMGWFRQAPGKEREFVAAVSRSGGSTYYADSVKGRFTISRDNAKNTVYLQMNSLKPEDTAVYYCAAAATKSNTTAYRLSFDYWGQGTQVTVSS
notes: also called anti-TcdA VHH A4.2
B9: the binding result in [1] is “no binding”. Moreover, the binding result in test [2] is reported as “no binding”. In [3], the Kd came out at 0.024 µM, the koff is 0.016 s⁻¹ and the kon was determined as 670000 M⁻¹ s⁻¹. Further, in test [4], binding was characterised by a dissociation constant (Kd) of 0.024 µM and the koff is 0.016 s⁻¹.

B10: A20.1 (VHH)
VHH: QVQLVESGGGLAQAGGSLRLSCAASGRTFSMDPMAWFRQPPGKEREFVAAGSSTGRTTYYADSVKGRFTISRDNAKNTVYLQMNSLKPEDTAVYYCAAAPYGANWYRDEYAYWGQGTQVTVSS
notes: also called anti-TcdA VHH A20.1
For the molecule B10, the “EC50 (read off the curve)” value in test [11] was ~0.001 µM. Also, the binding result in test [1] is on record as “no binding”. Moreover, the binding result in test [2] is “no binding”. In test [3], the Kd stood at 0.002 µM, the koff is 0.0016 s⁻¹ and the on-rate (kon) was found to be 820000 M⁻¹ s⁻¹. Besides, in [4], the Kd came to 0.002 µM, the koff turned out to be 0.0016 s⁻¹ and the kon was found to be 820000 M⁻¹ s⁻¹.

B11: A20.1m (VHH)
VHH: QVQLVESGGGLAQAGGSLRLSCAASGRTFSMDPMAWFRQPPGKEREFVCAGSSTGRTTYYADSVKGRFTCSRDNAKNTVYLQMNSLKPEDTAVYYCAAAPYGANWYRDEYAYWGQGTQVTVSS
notes: also called mutant A20.1; disulfide mutant of A20.1
B11 displayed a koff in [8] of 0.0059 s⁻¹. In test [9], this molecule gave a Kd of 0.0092 µM, a koff of 0.0059 s⁻¹ and a kon of 640000 M⁻¹ s⁻¹.

B12: A20.1p (other)
VHH: QVQLVESGGGLAQAGGSLRLSCAASGRTFSMDPMAWFRQPPGKEREFVAAGSSTGRTTYYADSVKGRFTISRDNAKNTVYLQMNSLKPEDTAVYYCAAAPYGANWYRDEYAYWGQGTQVTVSS
B12: the “EC50 (read off the curve)” value in test [12] was ~0.001 µM.

B13: A5.1 (VHH)
VHH: QVKLEESGGGLVQAGGSLRLSCAASGRTFSMYRMGWFRQAPGKEREFVGVITRNGSSTYYADSVKGRFTISRDNAKNTVYLQMNSLKPEDTALYYCAATSGSSYLDAAHVYDYWGQGTQVTVSS
notes: also called anti-TcdA VHH A5.1
With B13, in [11], the “EC50 (read off the curve)” value was ~0.007 µM. In addition, in [1], the binding result is recorded as “no binding”. For the same molecule, the binding result in test [2] was “no binding”. In test [3], this molecule displayed a Kd of 0.003 µM, a koff of 0.005 s⁻¹ and a kon of 1.6e+06 M⁻¹ s⁻¹. In [4], this molecule had a Kd of 0.003 µM, a koff of 0.005 s⁻¹ and a kon of 1.6e+06 M⁻¹ s⁻¹.

B14: A5.1p (other)
VHH: QVKLEESGGGLVQAGGSLRLSCAASGRTFSMYRMGWFRQAPGKEREFVGVITRNGSSTYYADSVKGRFTISRDNAKNTVYLQMNSLKPEDTALYYCAATSGSSYLDAAHVYDYWGQGTQVTVSS
With B14, the “EC50 (read off the curve)” value in [12] was ~0.004 µM.

B15: A5.1m (VHH)
VHH: QVKLEESGGGLVQAGGSLRLSCAASGRTFSMYRMGWFRQAPGKEREFVCVITRNGSSTYYADSVKGRFTCSRDNAKNTVYLQMNSLKPEDTALYYCAATSGSSYLDAAHVYDYWGQGTQVTVSS
notes: also called mutant A5.1; disulfide mutant of A5.1
B15 yielded a koff in test [8] of 0.013 s⁻¹. In test [9], the Kd was 0.017 µM, the koff was determined as 0.016 s⁻¹ and the kon was determined as 950000 M⁻¹ s⁻¹.

Source of the values: patent publication US20180134769A1 (NATIONAL RESEARCH COUNCIL OF CANADA, published 2018).
